According to the supplement of paper PMC12042874:
± gives the uncertainty stated by the source.

Experiment: amyloid nucleation score (Sup35N fusion, yeast selection) (log enrichment); library NNK2; higher = more nucleation; inactive = no reads after selection
Method in brief: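 The nucleation score, computed with DiMSum, is the log enrichment of output over input reads, centred on the mode score of non-aggregating sequences. Sequences with under 100 input reads were dropped. Reads were generated by Illumina sequencing of plasmid inserts from psi-negative yeast with Sup35N fused to peptides of 20 random codons, induced with 100 μM copper sulfate for 24 hours and grown 7 days at 30°C on medium lacking adenine and uracil.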

| Substance | amyloid nucleation score |
| --- | --- |
| DAMRVASEHIIVTAAAS | 2.72 ± 0.12 |
| DANLLFGYFPCPCT | inactive |
| DATNQRYVPRLFHKMSITGS | 0.848 ± 0.57 |
| DCLGVSFNDFQFLLVSAITR | inactive |
| DDIKIWFRATVHVVF | inactive |
| DDTLVVLPTRYLTPIWEMH | 2.4 ± 0.18 |
| DECCMWMVLPEGSPAQRPLG | 1.04 ± 0.34 |
| DEIIQRWIFNFIWDRLFYLR | 0.94 ± 0.14 |
| DELDVFG | -0.893 ± 0.44 |
| DESIEYSDSGGSCSFPVSK | inactive |
| DETYHKYDRFWLGVMSFGFY | -0.787 ± 0.34 |
| DEWQRGRTLSDTF | -0.295 ± 0.76 |
| DFCGRG | -0.152 ± 0.76 |
| DFCWAFRAASLSRGVRLAAV | 3.23 ± 0.11 |
| DFDGRRHSDNDLSWNSNF | -1.42 ± 1.1 |
| DFNSDFAGLLLDTNKYYIHD | -0.088 ± 1.1 |
| DFRCADCLKINFSIVQSK | 7.257 ± 0.05 |
| DFRKNANRLLRIYGVMRECA | -0.016 ± 0.19 |
| DFSLSGCPGMNRGDYDLHSK | inactive |
| DFSWNGGNFTFVFSKCGL | 2 ± 0.22 |
| DFVDGVPL | 0.415 ± 0.8 |
| DFYNRASLSYTSDVASGSPC | inactive |
| DGALNTFIDYGLSTAIKKIN | inactive |
| DGGMR | 0.322 ± 0.5 |
| DGGVYTNINIFGCLVGFGGW | 8.006 ± 0.026 |

| Substance | amyloid nucleation score |
| --- | --- |
| DGVFRCKKRSSNFSDKSVCM | 0.641 ± 0.74 |
| DGVSMFWMPHAKRALLYGSY | 0.063 ± 1.1 |
| DIFIGNSVCGVYRMVNMYSY | inactive |
| DIHQFGCTHIGCVIGYCCRV | 8.504 ± 0.031 |
| DISCCLYRDTPVWERKDYVA | -0.506 ± 1 |
| DIVANDKMMIIRVIMGTWCH | 0.927 ± 0.45 |
| DKFMLVSCVYSDNLLVIYSG | inactive |
| DKWAFVRITRQEPPASIRMD | -0.939 ± 0.76 |
| DLFLRYY | inactive |
| DLITLMKSAIPQPNMRLNSL | 0.105 ± 0.57 |
| DLKVWAWKLILFGIMDLGGH | 3.89 ± 0.048 |
| DLQIFTLLFTR | inactive |
| DLQSRDYPMADIVHIGIQRH | -0.754 ± 0.34 |
| DLRHASVVVNRWILCLLGHI | 0.106 ± 1 |
| DLTGGVRLRRWGWTSCSGNG | 0.404 ± 0.46 |
| DLVVELGESQQPWPLVRSRP | 0.6 ± 0.64 |
| DLWGVI | 8.81 ± 0.026 |
| DMERLAGYLQVRSKGMMRHT | 0.155 ± 0.42 |
| DMSNQFYELVAMILMNST | -0.823 ± 0.32 |
| DNDYIYRYPWP | -0.288 ± 1.1 |
| DNKYGFMIVIYTYSAGDAEE | 2.62 ± 0.061 |
| DNSIRTLEILKSGNIVRGPR | inactive |
| DPGSRDMIG | 0.043 ± 1 |
| DPKHATYAKQRSGMYRYGHW | 0.691 ± 0.43 |
| DPKVVMLVMTDMLNFG | 5.71 ± 0.06 |

| Substance | amyloid nucleation score |
| --- | --- |
| DQFRHLVTGSNNTIIKYSGV | inactive |
| DQLWRIRYWLLTDVGRNRIF | 0.343 ± 0.38 |
| DRCMFNYVIEVHVYSCVRFW | 4.67 ± 0.079 |
| DRFQMGCLWGNNEYLLSAMA | -1.97 ± 0.75 |
| DRHRFIHFYAQGERKLSRTM | -0.358 ± 0.79 |
| DRIGIRYWG | 1.34 ± 0.14 |
| DRLLDLIVWGVFWQLGMRFL | inactive |
| DRLMLALGKGHGFEIGGPVL | 1.37 ± 0.39 |
| DRNPSGNSERPHVMPHPSVD | -0.146 ± 0.32 |
| DRRPNCIFLDGSYRRDV | 0.034 ± 1.1 |
| DRSAIMVRCNQIFHISPIGF | 6.31 ± 0.064 |
| DRVLRVDSLSAVAVNNLVVR | -0.178 ± 1.1 |
| DRVLTPNKGGKPRTLPHRDS | 1.19 ± 0.37 |
| DRVSVVIAGDQKPEFRRGKR | -0.469 ± 0.45 |
| DSASVRVVIADEDLSAVVRA | 1.72 ± 0.27 |
| DSCRGMVSFCG | -0.399 ± 0.35 |
| DSFSSWYDFQFVWSVTVNRM | inactive |
| DSLLKVLRRIWCLYVGGNLI | -0.758 ± 0.37 |
| DSLTQILTVSCVCYEESMRI | -0.613 ± 0.48 |
| DSLYWSRCSSFRTKQEVSDM | 0.907 ± 0.3 |
| DSQKLAGVVSIKVSVANVLS | 3.9 ± 0.11 |
| DSSYG | 0.285 ± 0.74 |
| DSVIGSLCPNCYGWRISKVM | 0.081 ± 1.1 |
| DSVIRRNKNTSTL | -0.275 ± 0.25 |
| DSVVLGGYGGFAAHKTRVIF | 0.213 ± 0.43 |

| Substance | amyloid nucleation score |
| --- | --- |
| DSWLFGDINRCFWLVKCYHR | 2.69 ± 0.075 |
| DTAHTNISECRAMVRMYRSR | -0.755 ± 1.1 |
| DTIILC | inactive |
| DTLLSMAKRCLDSVFLGFPR | -0.134 ± 0.55 |
| DTLVHMLRYFGGTQPWYM | -0.183 ± 0.53 |
| DTMKFFSSLSMNGENVGLGY | inactive |
| DTSIW | 0.114 ± 0.29 |
| DTWVLDIMYFSLRYWVFVSV | 0.228 ± 1 |
| DVAYRVVDKRIQRVAKCMYM | -0.194 ± 0.6 |
| DVFVDMGMLTPKRCRARRGV | 0.883 ± 0.34 |
| DVIVRLFVPYLVV | -0.199 ± 0.44 |
| DVKSAWRLGVGCLTVRAIRE | 0.233 ± 0.49 |
| DVLVSILITPRCHHA | inactive |
| DVQHFIWCCNATVTYPLLVL | 1.27 ± 0.22 |
| DVSGISDARMGKPSQWYGWY | 0.182 ± 0.38 |
| DVVKSVPQTPL | 0.851 ± 0.28 |
| DWCYYGG | inactive |
| DWPRLLNFWRY | -0.284 ± 1.1 |
| DWTTAFSTF | -0.012 ± 0.41 |
| DWVFMRKCSPCWWYYIHLMS | -0.468 ± 0.64 |
| DWWERGRVGSGCQSLGVTLH | 0.923 ± 0.81 |
| DWWSDDSRLGNLLRFSKRSF | -0.636 ± 0.76 |
| DYCMFFGVTRISSLH | 3.95 ± 0.073 |
| DYFFPWENSGCIRRSLTVG | -1.35 ± 0.41 |
| DYGLVCY | 0.277 ± 0.22 |

| Substance | amyloid nucleation score |
| --- | --- |
| DYLSIFDYHDMMGQNFL | -0.151 ± 0.49 |
| DYMTGV | inactive |
| DYPSKKGVVPPRLGISDKNV | 2.86 ± 0.049 |
| DYRMVYSCCMLGREGWRNTW | 5.606 ± 0.035 |
| ECFTMSRK | -1.28 ± 0.37 |
| ECGDRIL | 0.536 ± 0.42 |
| ECHANASFFLCRGAERSACG | 0.783 ± 0.58 |
| ECLTG | -1.04 ± 0.44 |
| ECMAWGIFCGGSSGIFCLNQ | inactive |
| ECSFVMKY | 3.41 ± 0.074 |
| EDHSGF | -1.15 ± 0.28 |
| EDIGSVMGVSRAFCWQRAIC | -0.666 ± 0.79 |
| EDLWWVQLSNLKDSVDEYCR | 0.007 ± 0.21 |
| EDSPPFWGVVWPFTRNNDRK | 1.11 ± 0.52 |
| EDVDICRHFYRGVVNNGYQR | 0.328 ± 0.57 |
| EELKYYSISVMLRGRHALLI | -0.894 ± 0.56 |
| EEREFSAASPEAMELR | inactive |
| EESGGYC | -0.893 ± 0.25 |
| EESYLSHGL | 1.22 ± 0.61 |
| EETVLIFLCYMAGRDLYKVN | 3.21 ± 0.096 |
| EEYFDWSMKCKLIYINRVPL | -0.358 ± 1 |
| EFDDYSFICRILSALFES | -0.153 ± 1.1 |
| EFIDLVD | inactive |
| EFLRNGLFKEVAS | 0.202 ± 0.64 |
| EFRWGFRGVSYLKCTC | 1.2 ± 0.15 |

| Substance | amyloid nucleation score |
| --- | --- |
| EFVLKSLTNLTEIKYAVSLE | 2.09 ± 0.099 |
| EGDMLILEF | -0.474 ± 1 |
| EGFLRIVKVVTTIWWTGLFC | -1.23 ± 1 |
| EGIILFRKDRELTGGRLTNV | -0.145 ± 1.1 |
| EGYAGVVQMALFYSWANIRL | 0.194 ± 0.62 |
| EHLCPYF | 0.667 ± 0.46 |
| EHVFMSAHFLLNSQRKKN | -1.9 ± 0.75 |
| EICLHLQAYAIKQCGLLGTP | 0.407 ± 0.26 |
| EIWMSLSLNAEISYVYYSQS | -0.658 ± 0.28 |
| EKAGGPWLDHNRRQCQCEVA | 0.634 ± 0.45 |
| EKGNVGSQANTLVRCSGLTW | 1.17 ± 0.21 |
| EKICRWHTDRGAFN | inactive |
| EKTFRFADYLMCPASSRSSV | -0.082 ± 0.4 |
| EKVSFASFMS | -1.31 ± 0.78 |
| ELFQIAVTRTKFLLVQSSYS | 1.27 ± 0.18 |
| ELLGG | -0.343 ± 1.1 |
| ELMVTVVDHCTFVVTRLCGE | 7.184 ± 0.064 |
| ELNLNS | 0.695 ± 0.36 |
| ELNMRAYRKMSKGSYSKNSG | -0.462 ± 0.76 |
| ELRSLAGIVSWLSLRYPPTE | 2.42 ± 0.23 |
| ELSRAGYEWCLGSHTSLVSS | 0.836 ± 0.32 |
| ELTTTTTYVRKVFCLYFS | 8.422 ± 0.047 |
| EMLFWVVGTMDVDWMPG | 0.508 ± 0.57 |
| EMLYTSFILSLWNNLDFILS | -0.452 ± 0.63 |
| EMVIGMFKCTLISSIVLKTC | 0.484 ± 0.23 |

| Substance | amyloid nucleation score |
| --- | --- |
| ENATFLATCI | -0.217 ± 0.79 |
| ENCHFLGWANNGVLKCSFT | -0.153 ± 0.63 |
| ENLSQQMFWFKYAKVWGNVH | -0.724 ± 0.39 |
| EPNIGSVP | -0.171 ± 0.55 |
| EQYPNKPVRCEVRATATWGP | 0.245 ± 0.27 |
| ERGSYLRESRYIVFFNLLIL | inactive |
| ERNCISYHKGIFDNNEC | inactive |
| ERNSWISLIQTF | -0.693 ± 0.39 |
| ERSIARSFRLAADFCSYSRR | inactive |
| ESDLVLGRVR | 0.69 ± 0.49 |
| ESFARFIAM | -0.033 ± 0.55 |
| ESLMKSYVLSAYMCGPIGGR | 1.03 ± 0.37 |
| ESSFLLNHHT | -0.142 ± 0.79 |
| ESTWSFNSLYIDLIKVWSDV | -0.889 ± 0.76 |
| ETHVRMWAHFWQTTLRCHKS | 1.72 ± 0.16 |
| ETVFRLFFSYRGVANHVVPG | -0.408 ± 0.63 |
| ETYLVFV | 0.072 ± 0.79 |
| ETYWWRQRLNSRLAFNWH | 5.16 ± 0.098 |
| EVDLRKSGLSGRVKFYLMLW | 0.839 ± 0.57 |
| EVLRKQIVRTRAVQVHFCLT | 1.15 ± 0.15 |
